Measured values reported in US20250250357A1 (NANJING ZAIMING PHARMACEUTICAL, published 2025).
Each block holds one binder with its values, some of them ahead of it.

Tests used:
[1] = molecular target: T1, human MSLN-FL-his protein (human, UniProt Q13421 296-580); assay: competitive ELISA; row Tab106
T1 construct: made in HEK293E cells, purified on nickel column; also called hMSLN-FL-his; human MSLN full-length protein; not shown: His tag
T1 sequence (Q13421 other isoform, or with tags, fused parts or gaps): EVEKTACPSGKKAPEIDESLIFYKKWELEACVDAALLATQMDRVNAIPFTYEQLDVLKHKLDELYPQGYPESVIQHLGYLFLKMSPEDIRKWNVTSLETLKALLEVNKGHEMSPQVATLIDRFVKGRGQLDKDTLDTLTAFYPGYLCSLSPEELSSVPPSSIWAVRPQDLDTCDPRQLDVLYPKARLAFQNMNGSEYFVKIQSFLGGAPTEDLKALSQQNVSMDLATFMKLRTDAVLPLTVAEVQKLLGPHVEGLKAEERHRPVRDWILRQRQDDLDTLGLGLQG

[2] = molecular target: T1, human MSLN-FL-his protein; assay: competitive ELISA; row Tab142
Description: (§1) In order to identify antigen-binding sites of antibodies, MSLN chimeric antibodies were grouped using competitive ELISA.
(§2) The chimeric antibodies were diluted to 2 μg/mL with PBS and allowed to coat 96-well high-adsorption ELISA plates at 50 μL/well. After the plates were coated at 4° C. overnight, 250 μL of a blocking buffer (PBS containing 2% (w/w) BSA) was added for two hours of blocking at room temperature. 40 μg/mL of the antibodies to be tested were added, and then the human MSLN-FL-His protein with an EC₈₀ concentration corresponding to each of the antibodies to be tested was added for incubation for 2 h. The plates were washed 5 times with PBS, an HRP-labeled anti-His secondary antibody (purchased from Genescript, Cat. No. A00612) was then added for incubation for 1 h, and the plates were washed 5 times again. A TMB substrate was added at 50 μL/well, and after 10 minutes of incubation at room temperature, a stop solution (1.0 M HCl) was added at 50 μL/well. OD₄₅₀ nm values were read using an ELISA plate reader (Insight, purchased from PerkinElmer), and the competition rate between the antibodies was calculated according to the OD₄₅₀ nm values using a formula.

[3] = molecular target: T1, human MSLN-FL-his protein; assay: competitive ELISA; row F3-63.5
Description: as §1, §2

[4] = molecular target: T1, human MSLN-FL-his protein; assay: competitive ELISA; row F6-62.5
Description: as §1, §2

[5] = molecular target: T1, human MSLN-FL-his protein; assay: competitive ELISA; row F6-76.1
Description: as §1, §2

[6] = molecular target: T1, human MSLN-FL-his protein; assay: competitive ELISA; row F2-56.12
Description: as §1, §2

[7] = molecular target: T1, human MSLN-FL-his protein; assay: competitive ELISA; row F4-94.15
Description: as §1, §2

[8] = molecular target: T1, human MSLN-FL-his protein; assay: SPR (Biacore), antibody captured on Protein A chip;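 note: measured at 25 °C, analyte injected 240 s in five twofold dilutions from 200 nM, dissociation up to 600 s, double-referenced, fitted with Langmuir 1:1 model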
Description: The flow cell was set at 25° C. The sample block was set at 16° C. Both were pretreated with the running buffer. In each cycle, first, the antibody to be tested was captured using the Protein A chip, and then a single concentration of human MSLN-FL-his protein was injected. […] The association was determined by injecting different concentrations of human MSLN-FL-his in solution for 240 s on end, wherein the flow rate was 30 μL/min, and the protein was diluted in a 1:1 dilution ratio from 200 nM (see detailed results for actual concentrations tested) to obtain 5 concentrations in total. The dissociation phase was monitored for up to 600 s and triggered by switching from the sample solution to the running buffer. The surface was regenerated by washing with 10 mM glycine solution (pH 1.5) at a flow rate of 30 μL/min for 30 s. The difference in bulk refractive index was corrected by subtracting the responses obtained from the goat anti-human Fc surface. Blank injections were also subtracted (=double reference). To calculate the apparent KD and other kinetic parameters, the Langmuir 1:1 model was used.

[9] = molecular target: T2, human MSLN-R3-his protein (human, UniProt Q13421 487-598); assay: ELISA, coated antigen, antibody 1 nM
T2 construct: Made in HEK293E cells, purified on nickel column; also called hMSLN-R3-his; human MSLN-R3 protein; not shown: His tag

[10] = molecular target: T3, human MSLN-R3-3 polypeptide (human); assay: ELISA, coated antigen, antibody 1 nM
T3 construct: Part of region R3 of human MSLN; also called hMSLN-R3-3; human MSLN-R3-3 protein
Description: (§3) The plate was sealed with a plastic film and incubated at 4° C. overnight. The next day, the plate was washed twice with PBST, and a blocking buffer [PBS+2% (w/w) BSA] was added for blocking at room temperature for 2 h. The blocking buffer was discarded, and a chimeric antibody or negative control antibody serially diluted from 100 nM was added at 50 μL/well. After incubation at 37° C. for 2 h, the plate was washed 3 times with PBST. […] After incubation at 37° C. for 2 h, the plate was washed 5 times with PBST. A TMB substrate was added at 50 μL/well for incubation at room temperature for 5-10 min, and then a stop solution (1.0 N HCl) was added at 50 μL/well.

[11] = molecular target: T2, human MSLN-R3-his protein; assay: ELISA, coated antigen, antibody 10 nM
Description: as §3

[12] = molecular target: T3, human MSLN-R3-3 polypeptide; assay: ELISA, coated antigen, antibody 10 nM
Description: as §3

[13] = molecular target: T2, human MSLN-R3-his protein; assay: ELISA, coated antigen, antibody 0.1 nM
Description: as §3

[14] = molecular target: T2, human MSLN-R3-his protein; assay: ELISA, coated antigen, antibody 100 nM
Description: as §3

[15] = molecular target: T3, human MSLN-R3-3 polypeptide; assay: ELISA, coated antigen, antibody 0.1 nM
Description: as §3

[16] = molecular target: T3, human MSLN-R3-3 polypeptide; assay: ELISA, coated antigen, antibody 100 nM
Description: as §3

[17] = molecular target: T2, human MSLN-R3-his protein; assay: ELISA, coated antigen, antibody 0.01 nM
Description: as §3

[18] = molecular target: T3, human MSLN-R3-3 polypeptide; assay: ELISA, coated antigen, antibody 0.01 nM
Description: as §3

[19] = molecular target: T2, human MSLN-R3-his protein; assay: ELISA, coated antigen, antibody 0.001 nM
Description: as §3

[20] = molecular target: T3, human MSLN-R3-3 polypeptide; assay: ELISA, coated antigen, antibody 0.001 nM
Description: as §3

[21] = molecular target: T2, human MSLN-R3-his protein; assay: ELISA, coated antigen, antibody 0.0001 nM
[22] = molecular target: T3, human MSLN-R3-3 polypeptide; assay: ELISA, coated antigen, antibody 0.0001 nM
Description: as §3

[23] = molecular target: T2, human MSLN-R3-his protein; assay: ELISA, coated antigen, no antibody (blank)
Description: as §3

[24] = molecular target: T3, human MSLN-R3-3 polypeptide; assay: ELISA, coated antigen, no antibody (blank)
[25] = molecular target: T4, human MSLN-FL-his protein (human, UniProt Q13421 296-580); assay: ELISA, coated antigen; antibody 1 nM
T4 construct: also called human MSLN full-length protein; hMSLN-FL-his; not shown: His tag

[26] = molecular target: T4, human MSLN-FL-his protein; assay: ELISA, coated antigen; antibody 10 nM
Description: as §3

[27] = molecular target: T4, human MSLN-FL-his protein; assay: ELISA, coated antigen; antibody 0.1 nM
Description: as §3

[28] = molecular target: T4, human MSLN-FL-his protein; assay: ELISA, coated antigen; antibody 100 nM
Description: as §3

[29] = molecular target: T4, human MSLN-FL-his protein; assay: ELISA, coated antigen; antibody 0.01 nM
Description: as §3

[30] = molecular target: T4, human MSLN-FL-his protein; assay: ELISA, coated antigen; antibody 0.001 nM
Description: as §3

[31] = molecular target: T4, human MSLN-FL-his protein; assay: ELISA, coated antigen; antibody 0.0001 nM
Description: as §3

[32] = molecular target: T4, human MSLN-FL-his protein; assay: ELISA, coated antigen; no antibody (blank, column 'none')
Description: as §3

[33] = molecular target: T5, human MSLN-R2-his protein (human, UniProt Q13421 391-486); assay: ELISA, coated antigen; antibody 1 nM
T5 construct: also called human MSLN-R2 protein; hMSLN-R2-his; not shown: His tag

[34] = molecular target: T5, human MSLN-R2-his protein; assay: ELISA, coated antigen; antibody 10 nM
Description: as §3

[35] = molecular target: T5, human MSLN-R2-his protein; assay: ELISA, coated antigen; antibody 0.1 nM
Description: as §3

[36] = molecular target: T5, human MSLN-R2-his protein; assay: ELISA, coated antigen; antibody 100 nM
Description: as §3

[37] = molecular target: T5, human MSLN-R2-his protein; assay: ELISA, coated antigen; antibody 0.01 nM
Description: as §3

[38] = molecular target: T5, human MSLN-R2-his protein; assay: ELISA, coated antigen; antibody 0.001 nM
Description: as §3

[39] = molecular target: T5, human MSLN-R2-his protein; assay: ELISA, coated antigen; antibody 0.0001 nM
Description: as §3

[40] = molecular target: T5, human MSLN-R2-his protein; assay: ELISA, coated antigen; no antibody (blank, column 'none')
Description: as §3

T5 sequence (Q13421 other isoform, or with tags, fused parts or gaps): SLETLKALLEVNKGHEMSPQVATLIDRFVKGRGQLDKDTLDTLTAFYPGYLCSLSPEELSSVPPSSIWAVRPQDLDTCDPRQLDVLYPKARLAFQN
T2 sequence (Q13421 495-606): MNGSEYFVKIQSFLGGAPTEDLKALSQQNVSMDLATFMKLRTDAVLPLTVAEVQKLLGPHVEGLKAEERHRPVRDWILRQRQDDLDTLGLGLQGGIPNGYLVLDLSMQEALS

B1: S009-F4-94.15 (antibody, human IgG1, kappa, V domains shown)
VH: QVQLHQPGAELVRPGSSVKLSCKASGYTFTSYWVHWVQQRPRQGLEWIGNIDPSDSEIHYNQKFKDKATLTVDKSSSTAYIHLSRLTSEDSAIYYCVRGGVPWFAYWGQGTLVTVSA
VL: QIVLTQSPAIMSASPGEKVTLTCSASSSVSSTYLYWFQQKPGSSPKVWIYSTSNLASGVPARFSGSGSGTSYSLTISSMEAEDAASYFCHQWISYPYTFGGGTKLEIKR
notes: human-murine chimeric antibody, human IgG1/kappa constant regions
- competition rate [1]: 19%
- competition rate [2]: 26%
- competition rate [3]: -10%
- competition rate [4]: -262%
- competition rate [5]: 99%
- competition rate [6]: 101%
- competition rate [7]: 100%
- Kd [8]: 1.2 nM
- koff [8]: 0.000185 s⁻¹
- kon [8]: 154000 M⁻¹ s⁻¹

B2: S009-F4-94.15 chimeric antibody (antibody, human IgG1, kappa, V domains shown)
VH: QVQLHQPGAELVRPGSSVKLSCKASGYTFTSYWVHWVQQRPRQGLEWIGNIDPSDSEIHYNQKFKDKATLTVDKSSSTAYIHLSRLTSEDSAIYYCVRGGVPWFAYWGQGTLVTVSA
VL: QIVLTQSPAIMSASPGEKVTLTCSASSSVSSTYLYWFQQKPGSSPKVWIYSTSNLASGVPARFSGSGSGTSYSLTISSMEAEDAASYFCHQWISYPYTFGGGTKLEIKR
notes: Human-murine chimeric antibody: murine VH/VL on human IgG1 heavy and kappa light constant regions
- OD450 [9]: 0.11
- OD450 [10]: 0.05
- OD450 [11]: 0.07
- OD450 [12]: 0.06
- OD450 [13]: 0.17
- OD450 [14]: 0.1
- OD450 [15]: 0.05
- OD450 [16]: 0.09
- OD450 [17]: 0.07
- OD450 [18]: 0.05
- OD450 [19]: 0.05
- OD450 [20]: 0.05
- OD450 [21]: 0.05
- OD450 [22]: 0.06
- OD450 [23]: 0.07
- OD450 [24]: 0.07

B5: S009-F3-63.5 (antibody, human IgG1, kappa, V domains shown)
VH: QVQLQQSGAELVRPGASVTLSCKASGYTFTDYEMHWVKQTPVHGLEWIGGIDPETGDTAYNQQFKGKAILTADRSSSTAYMELRSLTSEDSAVYYCTNYASSREDYWGQGTTLTVSS
VL: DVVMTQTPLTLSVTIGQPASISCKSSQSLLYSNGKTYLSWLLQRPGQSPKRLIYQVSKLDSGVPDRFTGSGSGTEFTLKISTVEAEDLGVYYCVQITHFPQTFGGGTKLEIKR
notes: as for B1
- competition rate [1]: 15%
- competition rate [2]: 2%
- competition rate [3]: 58%
- competition rate [4]: -366%
- competition rate [5]: -3%
- competition rate [6]: -77%
- competition rate [7]: 11%
- Kd [8]: 105 nM
- koff [8]: 0.000478 s⁻¹
- kon [8]: 4560 M⁻¹ s⁻¹

B6: S009-F2-56.12 (antibody, human IgG1, kappa, V domains shown)
VH: DVQLQESGPGMVKPSQSLSLTCTVTGYSITSGYDWHWIRHFPGNKLEWMGYISYSGSTNYNPSLKSRISITHDTSKNHFFLKLKSVTTEDTATYYCARGTGPDYWGQGTTLTVSS
VL: DIVMTQSQKFMSTSVGDRVSITCKASQNVRTAVAWYQQKPGQSPKALIHLPSNRHTGVPDRFTGSGSGTDFTLTISNVQSEDLADYFCLQHWNYPLTFGGGTKLEIKR
notes: as for B1
- competition rate [1]: 1%
- competition rate [2]: 3%
- competition rate [3]: -24%
- competition rate [4]: -233%
- competition rate [5]: 93%
- competition rate [6]: 97%
- competition rate [7]: 87%
- Kd [8]: 43.1 nM
- koff [8]: 0.00312 s⁻¹
- kon [8]: 72400 M⁻¹ s⁻¹

Further lines, results first:

- OD450 [25]: 3.13 OD450
- OD450 [26]: 3.11 OD450
- OD450 [27]: 2.45 OD450
- OD450 [28]: 3.22 OD450
- OD450 [29]: 0.94 OD450
- OD450 [30]: 0.27 OD450
- OD450 [31]: 0.05 OD450
- OD450 [32]: 0.05 OD450
B3: S009-F6-62.5 (antibody, human IgG1, kappa, V domains shown)
VH: QVQLQQPGTELVKPGASVKLSCRASGYTFTAYWMHWVKQRPGQGLEWIGNINPSNGGTDFNEKFKSKATLTVDKSSSTAYMQLSSLTSEDSAVYYCARGRGYFDVWGTGTTVTVSS
VL: DILLTQSPAILSVSPGERVSFSCRASKNIGTSIHWYQQRTNGSPRLLIKYASESISGIPSRFSGSGSGTDFTLNINSVESEDIADYYCQQSNSWPTLTFGAGTKLELKR
notes: Human-murine chimeric antibody, human IgG1/kappa constant regions

- OD450 [10]: 0.05
- OD450 [12]: 0.05
- OD450 [15]: 0.04
- OD450 [16]: 0.09
- OD450 [18]: 0.04
- OD450 [20]: 0.04
- OD450 [22]: 0.04
- OD450 [24]: 0.05
B4: S009-F6-62.5 chimeric antibody (antibody, human IgG1, kappa, V domains shown)
VH: QVQLQQPGTELVKPGASVKLSCRASGYTFTAYWMHWVKQRPGQGLEWIGNINPSNGGTDFNEKFKSKATLTVDKSSSTAYMQLSSLTSEDSAVYYCARGRGYFDVWGTGTTVTVSS
VL: DILLTQSPAILSVSPGERVSFSCRASKNIGTSIHWYQQRTNGSPRLLIKYASESISGIPSRFSGSGSGTDFTLNINSVESEDIADYYCQQSNSWPTLTFGAGTKLELKR
notes: as for B3

- OD450 [33]: 0.3 OD450
- OD450 [34]: 1.39 OD450
- OD450 [35]: 0.08 OD450
- OD450 [36]: 2.07 OD450
- OD450 [37]: 0.06 OD450
- OD450 [38]: 0.06 OD450
- OD450 [39]: 0.06 OD450
- OD450 [40]: 0.07 OD450
B7: Tab106 (YP218, hIgG1) (antibody, V domains shown)
VH: QQQLEESGGGLVKPEGSLTLTCKASGFDLGFYFYACWVRQAPGKGLEWIACIYTAGSGSTYYASWAKGRFTISKASSTTVTLQMTSLAAADTATYFCARSTANTRSTYYLNLWGPGTLVTVSS
VL: DVVMTQTPASVSEPVGGTVTIKCQASQRISSYLSWYQQKPGQRPKLLIFGASTLASGVPSRFKGSGSGTEYTLTISDLECADAATYYCQSYAYFDSNNWHAFGGGTEVVVRT
notes: Control antibody: YP218 VH and VL recombined into human IgG1 CH and CL expression vectors; also called YP218 human IgG1 antibody

- OD450 [9]: 1.57
- OD450 [11]: 1.69
- OD450 [13]: 0.88
- OD450 [14]: 1.79
- OD450 [17]: 0.18
- OD450 [19]: 0.06
- OD450 [21]: 0.05
- OD450 [23]: 0.07
B8: Tab106 (YP218, hIgG1) (antibody, V domains shown)
VH: QQQLEESGGGLVKPEGSLTLTCKASGFDLGFYFYACWVRQAPGKGLEWIACIYTAGSGSTYYASWAKGRFTISKASSTTVTLQMTSLAAADTATYFCARSTANTRSTYYLNLWGPGTLVTVSS
VL: DVVMTQTPASVSEPVGGTVTIKCQASQRISSYLSWYQQKPGQRPKLLIFGASTLASGVPSRFKGSGSGTEYTLTISDLECADAATYYCQSYAYFDSNNWHAFGGGTEVVVRT
notes: Control: YP218 VH and VL recombined into human IgG1 CH and CL expression vectors; also called YP218 human IgG1 antibody
